Test results taken from article PMC10980755, “Cooperative nucleic acid binding by Poly ADP-ribose polymerase 1”.

Experiments:
WT-PARP1 (full-length) [1] = target: T1, WT-PARP1 (full-length) (UniProt P09874 1-1014); assay: EMSA; monomer-equivalent Kmono; n=1.9±0.2; ω=67.3±10.8; EMSA: 25 mM Tris pH 8.0, 150 mM NaCl, 50 mM arginine, 1 mM EDTA, 0.1 mM TCEP, 1 mg/mL BSA, 20 °C, 30 min; 0.06 µM nucleic acid; settings: protein: recombinant; tags: His; label: 5'-32P
∆Zn1∆Zn2-PARP1 [2] = target: T2, ∆Zn1∆Zn2-PARP1 (UniProt P09874 216-1014, del1-215); assay: EMSA; monomer-equivalent Kmono; n=2.9±0.2; ω=104.3±31.1; EMSA: 25 mM Tris pH 8.0, 150 mM NaCl, 50 mM arginine, 1 mM EDTA, 0.1 mM TCEP, 1 mg/mL BSA, 20 °C, 30 min; 0.06 µM nucleic acid; settings: protein: recombinant; tags: His; label: 5'-32P
∆CAT-PARP1 [3] = target: T3, ∆CAT-PARP1 (UniProt P09874 1-662, del663-1014); assay: EMSA; monomer-equivalent Kmono; n=1.8±0.1; ω=86.1±20.3; EMSA: 25 mM Tris pH 8.0, 150 mM NaCl, 50 mM arginine, 1 mM EDTA, 0.1 mM TCEP, 1 mg/mL BSA, 20 °C, 30 min; 0.06 µM nucleic acid; settings: protein: recombinant; tags: His; label: 5'-32P
WT-PARP1 (full-length) [4] = target: T1, WT-PARP1 (full-length); assay: EMSA; monomer-equivalent Kmono; n=2.2±0.1; ω=51.4±10.1; EMSA: 25 mM Tris pH 8.0, 150 mM NaCl, 50 mM arginine, 1 mM EDTA, 0.1 mM TCEP, 1 mg/mL BSA, 20 °C, 30 min; 0.06 µM nucleic acid; settings: protein: recombinant; tags: His; label: 5'-Cy3
∆CAT-PARP1 [5] = target: T3, ∆CAT-PARP1; assay: EMSA; monomer-equivalent Kmono; n=1.9±0.1; ω=49.0±12.9; EMSA: 25 mM Tris pH 8.0, 150 mM NaCl, 50 mM arginine, 1 mM EDTA, 0.1 mM TCEP, 1 mg/mL BSA, 20 °C, 30 min; 0.06 µM nucleic acid; settings: protein: recombinant; tags: His; label: 5'-Cy3
∆Zn1∆Zn2-PARP1 [6] = target: T2, ∆Zn1∆Zn2-PARP1; assay: EMSA; monomer-equivalent Kmono; n=1.7±0.1; ω=56.7±14.4; EMSA: 25 mM Tris pH 8.0, 150 mM NaCl, 50 mM arginine, 1 mM EDTA, 0.1 mM TCEP, 1 mg/mL BSA, 20 °C, 30 min; 0.06 µM nucleic acid; settings: protein: recombinant; tags: His; label: 5'-Cy3
∆CAT-PARP1 [7] = target: T3, ∆CAT-PARP1; assay: EMSA; monomer-equivalent Kmono; n=3.9±0.2; ω=139.9±59.5; EMSA: 25 mM Tris pH 8.0, 150 mM NaCl, 50 mM arginine, 1 mM EDTA, 0.1 mM TCEP, 1 mg/mL BSA, 20 °C, 30 min; 0.06 µM nucleic acid; settings: protein: recombinant; tags: His; label: 5'-32P on one strand (EMSA); unlabeled in AUC; blunt
WT-PARP1 (full-length) [8] = target: T1, WT-PARP1 (full-length); assay: EMSA; monomer-equivalent Kmono; n=4.1±0.2; ω=82.6±20.5; EMSA: 25 mM Tris pH 8.0, 150 mM NaCl, 50 mM arginine, 1 mM EDTA, 0.1 mM TCEP, 1 mg/mL BSA, 20 °C, 30 min; 0.06 µM nucleic acid; settings: protein: recombinant; tags: His; label: 5'-32P on one strand (EMSA); unlabeled in AUC; blunt
∆Zn1∆Zn2-PARP1 [9] = target: T2, ∆Zn1∆Zn2-PARP1; assay: sedimentation velocity AUC; 10 mM Tris pH 8.0, 100 mM NaCl, 4 °C; 1.8 µM DNA, 7.2 µM protein; reaction boundary, rapid equilibrium; EMSA: 25 mM Tris pH 8.0, 150 mM NaCl, 50 mM arginine, 1 mM EDTA, 0.1 mM TCEP, 1 mg/mL BSA, 20 °C, 30 min; 0.06 µM nucleic acid; settings: protein: recombinant; tags: His; label: 5'-32P on one strand (EMSA); unlabeled in AUC; blunt
WT-PARP1 (full-length) [10] = target: T1, WT-PARP1 (full-length); assay: EMSA; monomer-equivalent Kmono; n=1.8±0.1; ω=24.7±8.6; EMSA: 25 mM Tris pH 8.0, 150 mM NaCl, 50 mM arginine, 1 mM EDTA, 0.1 mM TCEP, 1 mg/mL BSA, 20 °C, 30 min; 0.06 µM nucleic acid; settings: protein: recombinant; tags: His; label: 5'-32P
∆CAT-PARP1 [11] = target: T3, ∆CAT-PARP1; assay: EMSA; Kmono; n=1.0±0.1; EMSA: 25 mM Tris pH 8.0, 150 mM NaCl, 50 mM arginine, 1 mM EDTA, 0.1 mM TCEP, 1 mg/mL BSA, 20 °C, 30 min; 0.06 µM nucleic acid; settings: protein: recombinant; tags: His; label: 5'-32P

T2 sequence (P09874 216-1014, stated change not applied): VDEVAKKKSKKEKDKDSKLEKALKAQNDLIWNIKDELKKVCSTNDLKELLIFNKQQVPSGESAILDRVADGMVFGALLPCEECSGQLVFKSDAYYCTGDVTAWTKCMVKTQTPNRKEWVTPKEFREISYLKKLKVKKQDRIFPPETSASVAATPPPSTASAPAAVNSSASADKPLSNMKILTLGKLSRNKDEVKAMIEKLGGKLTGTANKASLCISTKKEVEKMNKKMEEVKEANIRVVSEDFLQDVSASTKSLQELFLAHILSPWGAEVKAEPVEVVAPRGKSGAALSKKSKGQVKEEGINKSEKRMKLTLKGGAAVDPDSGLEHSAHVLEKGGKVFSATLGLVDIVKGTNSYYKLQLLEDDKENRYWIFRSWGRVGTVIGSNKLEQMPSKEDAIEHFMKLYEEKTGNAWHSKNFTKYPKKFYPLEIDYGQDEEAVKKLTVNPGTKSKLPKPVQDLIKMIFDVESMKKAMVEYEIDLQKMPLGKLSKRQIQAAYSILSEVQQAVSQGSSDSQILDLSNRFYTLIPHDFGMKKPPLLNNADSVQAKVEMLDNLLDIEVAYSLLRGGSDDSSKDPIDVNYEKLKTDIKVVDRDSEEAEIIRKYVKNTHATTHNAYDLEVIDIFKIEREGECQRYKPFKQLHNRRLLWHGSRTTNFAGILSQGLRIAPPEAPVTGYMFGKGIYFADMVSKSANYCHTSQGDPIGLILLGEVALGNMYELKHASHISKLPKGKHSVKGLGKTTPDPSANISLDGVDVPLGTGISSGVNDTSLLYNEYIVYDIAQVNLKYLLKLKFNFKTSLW
T3 sequence (P09874 1-662, stated change not applied): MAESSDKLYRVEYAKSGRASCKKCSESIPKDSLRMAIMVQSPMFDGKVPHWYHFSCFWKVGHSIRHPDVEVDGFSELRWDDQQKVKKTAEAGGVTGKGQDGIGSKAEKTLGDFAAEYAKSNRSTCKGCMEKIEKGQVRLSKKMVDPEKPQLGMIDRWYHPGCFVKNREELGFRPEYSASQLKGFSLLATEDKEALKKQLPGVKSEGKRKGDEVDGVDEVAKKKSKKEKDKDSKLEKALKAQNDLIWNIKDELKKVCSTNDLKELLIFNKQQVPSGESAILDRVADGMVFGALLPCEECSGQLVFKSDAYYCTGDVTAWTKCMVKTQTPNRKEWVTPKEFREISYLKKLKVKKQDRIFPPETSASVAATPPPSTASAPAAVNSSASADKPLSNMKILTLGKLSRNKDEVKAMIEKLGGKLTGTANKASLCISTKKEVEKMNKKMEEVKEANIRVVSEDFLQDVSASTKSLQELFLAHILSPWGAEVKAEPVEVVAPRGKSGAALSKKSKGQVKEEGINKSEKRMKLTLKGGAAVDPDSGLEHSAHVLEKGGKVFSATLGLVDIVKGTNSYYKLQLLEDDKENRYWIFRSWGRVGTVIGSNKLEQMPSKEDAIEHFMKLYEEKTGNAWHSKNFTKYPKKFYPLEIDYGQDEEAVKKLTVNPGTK
T1 sequence (P09874 whole entry): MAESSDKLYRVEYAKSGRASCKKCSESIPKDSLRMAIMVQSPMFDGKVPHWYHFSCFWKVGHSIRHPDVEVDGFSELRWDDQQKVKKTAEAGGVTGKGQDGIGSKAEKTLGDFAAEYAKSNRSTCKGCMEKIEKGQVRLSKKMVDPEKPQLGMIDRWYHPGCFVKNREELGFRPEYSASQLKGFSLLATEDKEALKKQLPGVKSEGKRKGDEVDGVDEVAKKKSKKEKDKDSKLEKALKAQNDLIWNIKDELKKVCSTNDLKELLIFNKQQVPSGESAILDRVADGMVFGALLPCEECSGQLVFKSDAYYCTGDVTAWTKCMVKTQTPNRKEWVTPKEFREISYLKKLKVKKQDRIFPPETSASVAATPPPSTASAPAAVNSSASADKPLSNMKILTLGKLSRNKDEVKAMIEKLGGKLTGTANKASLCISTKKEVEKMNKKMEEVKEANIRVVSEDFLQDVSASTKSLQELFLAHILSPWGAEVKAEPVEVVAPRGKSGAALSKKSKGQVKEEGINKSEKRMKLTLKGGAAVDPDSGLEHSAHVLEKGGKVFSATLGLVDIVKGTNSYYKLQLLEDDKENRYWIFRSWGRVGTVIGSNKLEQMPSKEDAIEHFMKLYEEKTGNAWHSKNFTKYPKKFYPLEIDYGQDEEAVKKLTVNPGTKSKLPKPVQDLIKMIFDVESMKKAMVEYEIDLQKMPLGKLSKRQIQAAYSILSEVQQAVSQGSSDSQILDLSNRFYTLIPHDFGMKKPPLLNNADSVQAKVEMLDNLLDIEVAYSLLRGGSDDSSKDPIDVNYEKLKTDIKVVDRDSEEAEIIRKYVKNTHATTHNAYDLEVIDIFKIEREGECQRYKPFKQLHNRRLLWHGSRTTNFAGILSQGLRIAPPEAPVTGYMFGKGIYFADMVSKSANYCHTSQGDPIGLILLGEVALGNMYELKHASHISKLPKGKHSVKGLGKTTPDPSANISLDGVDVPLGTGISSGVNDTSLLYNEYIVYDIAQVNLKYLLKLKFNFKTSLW

B1: U20 RNA (ssRNA)
RNA: UUUUUUUUUUUUUUUUUUUU
Work on B1 yielded a Ka (WT-PARP1 (full-length) [1]) of 2.1e+08 M⁻¹, a Ka (∆Zn1∆Zn2-PARP1 [2]) of 9.1e+07 M⁻¹ and a Ka (∆CAT-PARP1 [3]) of 6.6e+06 M⁻¹.

B2: Cy3-T20 DNA (ssDNA)
DNA: TTTTTTTTTTTTTTTTTTTT
For B2, the Ka (WT-PARP1 (full-length) [4]) was 1.3e+07 M⁻¹, the Ka (∆CAT-PARP1 [5]) was 3.3e+06 M⁻¹ and the Ka (∆Zn1∆Zn2-PARP1 [6]) was 2.5e+06 M⁻¹.

B3: ds19-mer DNA (dsDNA)
DNA 1: CGTACGCGGGTTTAAACGA
DNA 2: TCGTTTAAACCCGCGTACG
For B3, the Ka (∆CAT-PARP1 [7]) was 1.3e+07 M⁻¹, the Ka (WT-PARP1 (full-length) [8]) was 1.2e+07 M⁻¹ and the binding result (∆Zn1∆Zn2-PARP1 [9]) was “binds”.

B4: ss19-mer DNA (ssDNA)
DNA: CGTACGCGGGTTTAAACGA
B4 gave a Ka (WT-PARP1 (full-length) [10]) of 3.3e+06 M⁻¹ and a Ka (∆CAT-PARP1 [11]) of 114000 M⁻¹.
